Earlier results in paper PMC1775043.
pKd: −log10 of the molar value.

Biological target: hnRNP A2 (Homo sapiens) (UniProt P22626)
Assay: FCS

- pKd: 10.00
Substance: hnRNP A2 (from UniProt P22626)
